Reference: patent US20260248897

B1: gene recombinant of human ERp72 (protein disulfide isomerase family A member 4) (protein)
chain: MGSSHHHHHHSSGLVPRGSHEGPDEDSSNRENAIEDEEEEEEEDDDEEEDDLEVKEENGVLVLNDANFDNFVADKDTVLLEFYAPWCGHCKQFAPEYEKIANILKDKDPPIPVAKIDATSASVLASRFDVSGYPTIKILKKGQAVDYEGSRTQEEIVAKVREVSQPDWTPPPEVTLVLTKENFDEVVNDADIILVEFYAPWCGHCKKLAPEYEKAAKELSKRSPPIPLAKVDATAETDLAKRFDVSGYPTLKIFRKGRPYDYNGPREKYGIVDYMIEQSGPPSKEILTLKQVQEFLKDGDDVIIIGVFKGESDPAYQQYQDAANNLREDYKFHHTFSTEIAKFLKVSQGQLVVMQPEKFQSKYEPRSHMMDVQGSTQDSAIKDFVLKYALPLVGHRKVSNDAKRYTRRPLVVVYYSVDFSFDYRAATQFWRSKVLEVAKDFPEYTFAIADEEDYAGEVKDLGLSESGEDVNAAILDESGKKFAMEPEEFDSDTLREFVTAFKKGKLKPVIKSQPVPKNNKGPVKVVVGKTFDSIVMDPKKDVLIEFYAPWCGHCKQLEPVYNSLAKKYKGQKGLVIAKMDATANDVPSDRYKVEGFPTIYFAPSGDKKNPVKFEGGDRDLEHLSKFIEEHATKLSRTKEEL
B2: gene recombinant of human ERp57 (protein disulfide-isomerase like protein ERp57) (protein)
chain: MGSSHHHHHHSSGLVPRGSHMLESDVLELTDDNFESRISDTGSAGLMLVEFFAPWCGHCKRLAPEYEAAATRLKGIVPLAKVDCTANTNTCNKYGVSGYPTLKIFRDGEEAGAYDGPRTADGIVSHLKKQAGPASVPLRTEEEFKKFISDKDASIVGFFDDSFSEAHSEFLKAASNLRDNYRFAHTNVESLVNEYDDNGEGIILFRPSHLTNKFEDKTVAYTEQKMTSGKIKKFIQENIFGICPHMTEDNKDLIQGKDLLIAYYDVDYEKNAKGSNYWRNRVMMVAKKFLDAGHKLNFAVASRKTFSHELSDFGLESTAGEIPVVAIRTAKGEKFVMQEEFSRDGKALERFLQDYFDGNLKRYLKSEPIPESNDGPVKVVVAENFDEIVNNENKDVLIEFYAPWCGHCKNLEPKYKELGEKLSKDPNIVIAKMDATANDVPSPYEVRGFPTIYFSPANKKLNPKKYEGGRELSDFISYLQREATNPPVIQEEKPKKKKKAQEDL
B3: gene recombinant of human P5 (protein disulfide isomerase family A member 6) (protein)
chain: MGSSHHHHHHSSGLVPRGSHMLYSSSDDVIELTPSNFNREVIQSDSLWLVEFYAPWCGHCQRLTPEWKKAATALKDVVKVGAVDADKHHSLGGQYGVQGFPTIKIFGSNKNRPEDYQGGRTGEAIVDAALSALRQLVKDRLGGRSGGYSSGKQGRSDSSSKKDVIELTDDSFDKNVLDSEDVWMVEFYAPWCGHCKNLEPEWAAAASEVKEQTKGKVKLAAVDATVNQVLASRYGIRGFPTIKIFQKGESPVDYDGGRTRSDIVSRALDLFSDNAPPPELLEIINEDIAKRTCEEHQLCVVAVLPHILDTGAAGRNSYLEVLLKLADKYKKKMWGWLWTEAGAQSELETALGIGGFGYPAMAAINARKMKFALLKGSFSEQGINEFLRELSFGRGSTAPVGGGAFPTIVEREPWDGRDGELPVEDDIDLSDVELDDLGKDEL

Tests used:
[1] = biological target: RBD of SARS-CoV-2 (B lineage), P0DTC2
[2] = biological target: T1, RBD of hCoV-229E, P15423
T1 chain: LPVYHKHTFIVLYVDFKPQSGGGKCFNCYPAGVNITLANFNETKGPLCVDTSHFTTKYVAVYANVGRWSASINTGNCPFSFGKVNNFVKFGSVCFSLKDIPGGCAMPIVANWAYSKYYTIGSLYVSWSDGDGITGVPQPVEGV

Protein	disulfide bond cleavage activity (remaining rate of native RBD; maleimide-PEG 2k, SDS-PAGE) [1]	disulfide bond cleavage activity (remaining rate of native RBD; maleimide-PEG 2k, SDS-PAGE) [2]
B1	The order of the disulfide bond cleavage activity of the RBD from highest to lowest was PDI, ERp46, P5, ERp72, and ERp57.	The order of the disulfide bond cleavage activity of the RBD of hCoV-229E from highest to lowest was PDI, ERp46, P5, Erp57, and ERp72.
B2	The order of the disulfide bond cleavage activity of the RBD from highest to lowest was PDI, ERp46, P5, ERp72, and ERp57.	The order of the disulfide bond cleavage activity of the RBD of hCoV-229E from highest to lowest was PDI, ERp46, P5, Erp57, and ERp72.
B3	The order of the disulfide bond cleavage activity of the RBD from highest to lowest was PDI, ERp46, P5, ERp72, and ERp57.	The order of the disulfide bond cleavage activity of the RBD of hCoV-229E from highest to lowest was PDI, ERp46, P5, Erp57, and ERp72.
